Holding throughout (experiment): fluorescence anisotropy
For orientation: Polarisation of emitted light reports the rotation of a fluorescent probe.

In series [1] the target is T1, NC(1-55) WT, zinc-bound (HIV-1 (NL4-3 isolate), UniProt P12493 378-432).
A further series has as its target T2, NC(1-28) (HIV-1 (NL4-3 isolate), UniProt P12493 378-405).
T2 chain: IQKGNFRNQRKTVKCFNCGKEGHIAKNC

The target in series [2] is T1, NC(1-55) WT, zinc-bound. The source holds these as a separate data set.
The target in a further series is NC(29-55) (HIV-1 (NL4-3 isolate), UniProt P12493 406-432).
Another series deals with T3, NC(1-35) (HIV-1 (NL4-3 isolate), UniProt P12493 378-412).
T3 chain: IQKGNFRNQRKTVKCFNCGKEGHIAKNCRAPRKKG

Where two headings read alike, the source gives them in different places.

In general, Kd refers to the free concentration of one partner at which half of the binding sites on the other are occupied at equilibrium, for simple one-to-one binding. Low readings indicate tighter binding, high ones weaker binding.

For CTTCTTTGGGAGTGAATTAG (ssDNA) [5'-FAM-DNA20], the Kd with NC(1-55) WT, zinc-bound [1] came out at 16 ± 5 nM; with NC(1-28) it was 731 ± 150 nM; with NC(1-55) WT, zinc-bound [2] it was 57 ± 22 nM; in the series with NC(29-55) it was 867 ± 3 nM; in the series with NC(1-35), 86 ± 19 nM.

The values are drawn from paper PMC3875364.
